One may read the Km as the substrate concentration at which the rate is half of its maximum. Broadly, the kcat is the number of substrate molecules converted per active site and unit of time at saturation. For orientation: kcat/Km means the second-order rate constant that governs catalysis at low substrate concentration.

Assay in all cases: cell-based or functional assay
Assay [1] has as its target gp120 of clade A HIV strains.
Assay [2] concerns the target Efb (S. aureus virulence factor) (Staphylococcus aureus) (UniProt A6QG59).
Assay [3] concerns the target amyloid β peptide Aβ1-40 (UniProt P05067).

Sequence of Efb (S. aureus virulence factor) (Staphylococcus aureus) (A6QG59 30-165 limits assumed): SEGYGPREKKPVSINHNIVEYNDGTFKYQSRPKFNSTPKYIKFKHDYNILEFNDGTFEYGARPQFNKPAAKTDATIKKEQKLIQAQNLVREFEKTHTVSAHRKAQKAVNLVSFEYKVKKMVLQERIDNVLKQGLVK

B1: scFv JL427 (scFv)
scFv: QSVLTQPPSVSGAPGQRVTISCSGSSSNFGLNYVYWYQHFPGTAPKLLIYRNDQRPLGVPARFSGSKSGTSASLAISGLRSEDEADYYCQSYDNSLSGWVFGGGTQLTVLGSSGGGGSGGGGSGGSALQVQLQQSGGGLVQPGRSLRLSCAASGFTFSSYGMHWVRQAPGKGLEWVSYIGRSGSHTNYADSVKGRFTISRDNSKNTLYLQINSLRAEDTAVYYCARGLPNYGMDIWGQGTTVTVSSGSASAPTLFPAAAHHHHHHGAAEQKLISEEDLNGAA
In turn, B1 yielded an HIV neutralization IC50 in assay [1] of 0.2 µg/mL.

B2: IgVL2-t 2E6 (protein)
chain: QSALTQPASVSGSPGQSITISCTGTSSDVGGYNYVSWYQQHPGKAPKLMISEVSNRPSGVSNRFSGSKSGNTASLTISGPQTEDEADYYCSSYTSSSTPVVFGGGTQLTVLGSSGGGGSGGGGSGGSALDIQLTQSPSSLPASVGDRVTITCRASQSISSYLNWYQQKPGKAPKLLIYAASSLQSGVPSRFSGSGSGTDFTLTISSLQPEDFATYYCQQSYSTHTFGQGTKLEIKRAAAHHHHHHGAAEQKLISEEDLNGAA
B2: the % Bt-Efb cleavage in assay [2] was above 20%. In assay [3], this molecule yielded a 125I-Aβ1-40 hydrolyzing activity, specific activity, preparation AEQ (fmol/h/mg protein) of 1160; a 125I-Aβ1-40 hydrolyzing activity, specific activity, preparation MA1 (fmol/h/mg protein) of 380; a 125I-Aβ1-40 hydrolyzing activity, specific activity, preparation MA2 (fmol/h/mg protein) of 368; a 125I-Aβ40 hydrolysis, activity in the absence of a competitor peptide of 2590 cpm/hour. In assay [3], the Km amounted to 80 µM, the kcat was 0.005 s⁻¹ and the kcat/Km was 61.7 M⁻¹ s⁻¹.

The values are drawn from patent US20100183614A1.
